Measurements: paper PMC6720452, “Structural Basis for Recruitment of DAPK1 to the KLHL20 E3 Ligase” (Structure(London, England:1993), 2019)

Biological target: T1, KLHL20 Kelch domain (human, UniProt Q9Y2M5 303-605)
T1 construct: Kelch domain of human KLHL20, Uniprot Q9Y2M5 isoform 1, M303-E605; structure traced from residues 317 to 601; Used for SPR (amine-coupled) and crystallisation; also called untagged KLHL20 Kelch; source: E. coli BL21(DE3)R3-pRARE2, purified (nickel sepharose, size exclusion, anion exchange)
T1 sequence (looked up): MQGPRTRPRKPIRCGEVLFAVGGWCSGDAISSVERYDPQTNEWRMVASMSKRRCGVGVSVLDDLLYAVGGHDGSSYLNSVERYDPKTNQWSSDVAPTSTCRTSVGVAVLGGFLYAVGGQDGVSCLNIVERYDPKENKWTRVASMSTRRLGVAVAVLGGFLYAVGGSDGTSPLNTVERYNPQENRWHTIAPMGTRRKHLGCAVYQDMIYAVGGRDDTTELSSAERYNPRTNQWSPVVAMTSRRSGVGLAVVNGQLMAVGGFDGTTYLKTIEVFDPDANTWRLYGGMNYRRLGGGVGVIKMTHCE
Assay: crystal structure; KLHL20 Kelch domain 12 mg/mL with 3 mM DAPK1 peptide; sitting drop, 2 M sodium chloride, 0.1 M acetate pH 4.5, 20°C; 1.1 Å
Conditions: both partners purified

- binding result: binds
B1: 11-residue DAPK1 peptide (crystallization peptide) (peptide)
peptide: LGLPDLVAKYN
notes: also called LT1342; source: synthetic peptide, bought: LifeTein
